The Human Domainome abundance scans (Beltran et al. 2025)
± gives the uncertainty stated by the source.

test: abundance fitness (aPCA) (normalised: wild type 0, dead -1); higher = more abundant; growth selection in yeast, the domain comes from the species named; settings: Saccharomyces cerevisiae (strain ATCC 204508 / S288c)

Substance | abundance fitness
E3 ubiquitin-protein ligase RSP5 F341N, P39940 | 0.189 ± 0.11
E3 ubiquitin-protein ligase RSP5 F341P, P39940 | -0.669 ± 0.082
E3 ubiquitin-protein ligase RSP5 F341R, P39940 | -0.053 ± 0.045
E3 ubiquitin-protein ligase RSP5 F341S, P39940 | -0.066 ± 0.06
E3 ubiquitin-protein ligase RSP5 F341T, P39940 | 0.003 ± 0.067
E3 ubiquitin-protein ligase RSP5 F341V, P39940 | 0.019 ± 0.043
E3 ubiquitin-protein ligase RSP5 F341W, P39940 | -0.064 ± 0.056
E3 ubiquitin-protein ligase RSP5 F341Y, P39940 | 0.048 ± 0.054
E3 ubiquitin-protein ligase RSP5 F349A, P39940 | -0.708 ± 0.047
E3 ubiquitin-protein ligase RSP5 F349G, P39940 | -0.703 ± 0.043
E3 ubiquitin-protein ligase RSP5 F349I, P39940 | -0.814 ± 0.1
E3 ubiquitin-protein ligase RSP5 F349K, P39940 | -0.837 ± 0.13
E3 ubiquitin-protein ligase RSP5 F349L, P39940 | -0.648 ± 0.055
E3 ubiquitin-protein ligase RSP5 F349M, P39940 | -0.662 ± 0.15
E3 ubiquitin-protein ligase RSP5 F349P, P39940 | -0.804 ± 0.08
E3 ubiquitin-protein ligase RSP5 F349R, P39940 | -0.937 ± 0.051
E3 ubiquitin-protein ligase RSP5 F349S, P39940 | -0.83 ± 0.057
E3 ubiquitin-protein ligase RSP5 F349V, P39940 | -0.739 ± 0.044
E3 ubiquitin-protein ligase RSP5 F349W, P39940 | -0.008 ± 0.052
E3 ubiquitin-protein ligase RSP5 F349Y, P39940 | 0.086 ± 0.072
E3 ubiquitin-protein ligase RSP5 G324A, P39940 | 0.004 ± 0.084
E3 ubiquitin-protein ligase RSP5 G324C, P39940 | 0.204 ± 0.12
E3 ubiquitin-protein ligase RSP5 G324D, P39940 | 0.06 ± 0.065
E3 ubiquitin-protein ligase RSP5 G324E, P39940 | 0.216 ± 0.071
E3 ubiquitin-protein ligase RSP5 G324F, P39940 | -0.48 ± 0.45
E3 ubiquitin-protein ligase RSP5 G324K, P39940 | 0.284 ± 0.14

Substance | abundance fitness
E3 ubiquitin-protein ligase RSP5 G324L, P39940 | -0.328 ± 0.13
E3 ubiquitin-protein ligase RSP5 G324M, P39940 | 0.105 ± 0.12
E3 ubiquitin-protein ligase RSP5 G324N, P39940 | 0.182 ± 0.12
E3 ubiquitin-protein ligase RSP5 G324P, P39940 | -0.178 ± 0.1
E3 ubiquitin-protein ligase RSP5 G324R, P39940 | -0.099 ± 0.066
E3 ubiquitin-protein ligase RSP5 G324S, P39940 | 0.097 ± 0.092
E3 ubiquitin-protein ligase RSP5 G324T, P39940 | -0.04 ± 0.11
E3 ubiquitin-protein ligase RSP5 G324V, P39940 | 0.005 ± 0.11
E3 ubiquitin-protein ligase RSP5 G324W, P39940 | -0.344 ± 0.086
E3 ubiquitin-protein ligase RSP5 G325A, P39940 | -0.046 ± 0.051
E3 ubiquitin-protein ligase RSP5 G325C, P39940 | -0.008 ± 0.071
E3 ubiquitin-protein ligase RSP5 G325D, P39940 | 0.051 ± 0.051
E3 ubiquitin-protein ligase RSP5 G325E, P39940 | -0.031 ± 0.067
E3 ubiquitin-protein ligase RSP5 G325F, P39940 | -0.132 ± 0.065
E3 ubiquitin-protein ligase RSP5 G325H, P39940 | -0.035 ± 0.099
E3 ubiquitin-protein ligase RSP5 G325I, P39940 | 0.018 ± 0.092
E3 ubiquitin-protein ligase RSP5 G325L, P39940 | 0.029 ± 0.11
E3 ubiquitin-protein ligase RSP5 G325M, P39940 | 0.137 ± 0.095
E3 ubiquitin-protein ligase RSP5 G325P, P39940 | -0.252 ± 0.072
E3 ubiquitin-protein ligase RSP5 G325Q, P39940 | -0.151 ± 0.1
E3 ubiquitin-protein ligase RSP5 G325R, P39940 | -0.063 ± 0.047
E3 ubiquitin-protein ligase RSP5 G325S, P39940 | 0.069 ± 0.094
E3 ubiquitin-protein ligase RSP5 G325T, P39940 | 0.071 ± 0.097
E3 ubiquitin-protein ligase RSP5 G325V, P39940 | -0.021 ± 0.045
E3 ubiquitin-protein ligase RSP5 G325W, P39940 | -0.141 ± 0.099
E3 ubiquitin-protein ligase RSP5 G325Y, P39940 | -0.057 ± 0.083

Substance | abundance fitness
E3 ubiquitin-protein ligase RSP5 G329A, P39940 | 0.037 ± 0.044
E3 ubiquitin-protein ligase RSP5 G329C, P39940 | 0.077 ± 0.082
E3 ubiquitin-protein ligase RSP5 G329D, P39940 | 0.149 ± 0.066
E3 ubiquitin-protein ligase RSP5 G329E, P39940 | 0.096 ± 0.055
E3 ubiquitin-protein ligase RSP5 G329F, P39940 | -0.026 ± 0.091
E3 ubiquitin-protein ligase RSP5 G329H, P39940 | -0.046 ± 0.083
E3 ubiquitin-protein ligase RSP5 G329L, P39940 | -0.129 ± 0.047
E3 ubiquitin-protein ligase RSP5 G329M, P39940 | 0.061 ± 0.098
E3 ubiquitin-protein ligase RSP5 G329N, P39940 | 0.1 ± 0.069
E3 ubiquitin-protein ligase RSP5 G329P, P39940 | -0.113 ± 0.052
E3 ubiquitin-protein ligase RSP5 G329Q, P39940 | 0.18 ± 0.096
E3 ubiquitin-protein ligase RSP5 G329R, P39940 | -0.021 ± 0.043
E3 ubiquitin-protein ligase RSP5 G329S, P39940 | 0.103 ± 0.054
E3 ubiquitin-protein ligase RSP5 G329T, P39940 | 0.063 ± 0.071
E3 ubiquitin-protein ligase RSP5 G329V, P39940 | -0.006 ± 0.042
E3 ubiquitin-protein ligase RSP5 G329W, P39940 | -0.139 ± 0.058
E3 ubiquitin-protein ligase RSP5 G329Y, P39940 | -0.337 ± 0.39
E3 ubiquitin-protein ligase RSP5 G331A, P39940 | -0.034 ± 0.042
E3 ubiquitin-protein ligase RSP5 G331C, P39940 | -0.095 ± 0.09
E3 ubiquitin-protein ligase RSP5 G331D, P39940 | 0.059 ± 0.087
E3 ubiquitin-protein ligase RSP5 G331E, P39940 | -0.127 ± 0.049
E3 ubiquitin-protein ligase RSP5 G331F, P39940 | -0.126 ± 0.084
E3 ubiquitin-protein ligase RSP5 G331H, P39940 | -0.009 ± 0.15
E3 ubiquitin-protein ligase RSP5 G331I, P39940 | -0.071 ± 0.068
E3 ubiquitin-protein ligase RSP5 G331K, P39940 | -0.121 ± 0.046
E3 ubiquitin-protein ligase RSP5 G331L, P39940 | -0.095 ± 0.046

Substance | abundance fitness
E3 ubiquitin-protein ligase RSP5 G331M, P39940 | -0.02 ± 0.055
E3 ubiquitin-protein ligase RSP5 G331N, P39940 | -0.01 ± 0.1
E3 ubiquitin-protein ligase RSP5 G331P, P39940 | -0.249 ± 0.07
E3 ubiquitin-protein ligase RSP5 G331R, P39940 | -0.17 ± 0.041
E3 ubiquitin-protein ligase RSP5 G331S, P39940 | -0.186 ± 0.046
E3 ubiquitin-protein ligase RSP5 G331T, P39940 | -0.09 ± 0.046
E3 ubiquitin-protein ligase RSP5 G331V, P39940 | -0.083 ± 0.047
E3 ubiquitin-protein ligase RSP5 G331W, P39940 | -0.329 ± 0.049
E3 ubiquitin-protein ligase RSP5 G331Y, P39940 | -0.202 ± 0.17
E3 ubiquitin-protein ligase RSP5 G336A, P39940 | -0.447 ± 0.05
E3 ubiquitin-protein ligase RSP5 G336C, P39940 | -0.427 ± 0.063
E3 ubiquitin-protein ligase RSP5 G336D, P39940 | -0.368 ± 0.07
E3 ubiquitin-protein ligase RSP5 G336E, P39940 | -0.562 ± 0.059
E3 ubiquitin-protein ligase RSP5 G336F, P39940 | -0.544 ± 0.067
E3 ubiquitin-protein ligase RSP5 G336H, P39940 | -0.157 ± 0.2
E3 ubiquitin-protein ligase RSP5 G336I, P39940 | -1.3 ± 0.13
E3 ubiquitin-protein ligase RSP5 G336K, P39940 | -0.302 ± 0.062
E3 ubiquitin-protein ligase RSP5 G336L, P39940 | -0.575 ± 0.062
E3 ubiquitin-protein ligase RSP5 G336M, P39940 | -0.531 ± 0.1
E3 ubiquitin-protein ligase RSP5 G336P, P39940 | -0.755 ± 0.057
E3 ubiquitin-protein ligase RSP5 G336Q, P39940 | -0.271 ± 0.079
E3 ubiquitin-protein ligase RSP5 G336S, P39940 | -0.471 ± 0.061
E3 ubiquitin-protein ligase RSP5 G336T, P39940 | -0.461 ± 0.072
E3 ubiquitin-protein ligase RSP5 G336V, P39940 | -1.11 ± 0.061
E3 ubiquitin-protein ligase RSP5 G336W, P39940 | -0.558 ± 0.054
